Assay results reported in patent US7732178B2, “Laccase enzymes and their uses” (AB Enzymes Oy, priority 2004, dated 2010).
“Also recorded” adds a separate entry of the source.

Legend:
[1] = Specific activity towards guaiacol; format: biochemical; conditions: 25 mM MES buffer, pH 5.5
Experimental: Specific activities of the purified T. arenaria and C. thermophilum laccases were determined towards different laccase substrates.

[2] = Denim bleaching at different temperatures; set-up: key to After laccase treatment L* / After laccase treatment b* / Increase of L*: CIE L*a*b* colour coordinates (illuminant D65), reflectance; conditions: for After laccase treatment L* / After laccase treatment b* / Increase of L*: face side of denim, 30 min, pH 6, enzyme 200 nkat/g, mediator 10 mg/g
Experimental: Lee Cooper jeans (MASI Company Oy, Finland) that were desized and treated with neutral ECOSTONE® cellulase were used as test material. Laccase treatments were performed in LP-2 Launder Ometer as follows. About 10 g of denim swatches (15×14 cm) were loaded into 1.2 liter containers containing 200 ml Mc Ilvaine's citrate phosphate buffer pH 5, 6 or 7 and the containers were temperated. Enzyme with or without the mediator (methyl syringate, DeniLite II Assist, Novozymes) was added as laccase activity units. Enzyme was dosed 200 nkat/g and the mediator 10 mg/g on the weight of fabric. […] The Launder Ometer was run at 50° C. for 30 min and after that the temperature in Launder was raised to 80° C. for 10 min. The swatches were carefully rinsed with warm water, dried half-dry in a tumbler and after that air dried.
The bleaching effect was evaluated by measuring the colour as reflectance values with the Minolta Chromameter CM 1000 (Minolta Co.) using L*a*b* color space coordinates (illuminant D65). The colour from both sides of the swatches was measured before and after the laccase treatment. Each measurement was the average of several measurements.
The test system and denim were as in Example 7, except that the conditions during the laccase and mediator treatment in Launder were 30 min, pH 6 and temperature 30-70° C. (DeniLite II Base also at 80° C.) and the enzyme was inactivated by alkaline treatment instead of raising the temperature in Launder as follows. After removing swatches from the containers they were soaked in warm water containing NaOH (pH 11.5) for 10 min and rinsed carefully with warm water. The swatches were dried half-dry in a tumbler and after that air dried. The bleaching effect was evaluated by measuring the colour as reflectance values as in Example 7.

[3] = Stain removal, tea soiling; set-up: key to Tea L* / Tea a* / Tea b*: CIE L*a*b* color coordinates from reflectance; conditions: for Tea L* / Tea a* / Tea b*: 60 min, pH 6
Method in brief: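 Soiled swatches treated in McIlvaine citrate-phosphate buffer pH 6 for 60 min at 40, 50 or 60 °C. Laccase 200 nkat/g ± methyl syringate mediator 10 mg/g fabric (also 20 nkat/g and 2 mg/g at 40 °C). Stain removal from L*a*b* reflectance before versus after treatment.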

[4] = Decolorization of dyes; set-up: key to Decolorization of Cibacron Brilliant Red 3B-P, Time 30 min / Decolorization of Cibacron Brilliant Red 3B-P, Time 60 min: −: no visually detectable change; +: visually detectable fading of the colour; ++: considerable fading of the colour; +++: complete/almost complete decolorization; conditions: for Decolorization of Cibacron Brilliant Red 3B-P, Time 30 min / Decolorization of Cibacron Brilliant Red 3B-P, Time 60 min: dye 5 mg/50 ml, enzyme 100 nkat/50 ml, 50° C., pH 6
Experimental: (§1) The recombinant laccases CtLcc1, TaLcc2 and TaLcc4, derived from Trichoderma strains (Example 7) were tested for their ability to decolorize different dyes in the presence of the methyl syringate mediator (Example 7) or without it. The experiments were carried out in 100 ml shake flasks containing 50 ml of dye dissolved in citrate phosphate buffer pH 6. Dye concentration 5 mg/50 ml was used. Enzyme was dosed 100 nkat per 50 ml and the mediator 5 mg per 50 ml. Control samples contained only dye solution. The shake flasks were incubated at 50° C. for 30, 60 and 120 minutes. Samples of 3.5 ml were taken in test tubes for visual evaluation.

[5] = Decolorization of dyes; set-up: key to Decolorization of Remazol Brilliant blue, Time 30 min / Decolorization of Remazol Brilliant blue, Time 60 min: −: no visually detectable change; +: visually detectable fading of the colour; ++: considerable fading of the colour; +++: complete/almost complete decolorization; conditions: for Decolorization of Remazol Brilliant blue, Time 30 min / Decolorization of Remazol Brilliant blue, Time 60 min: dye 5 mg/50 ml, enzyme 100 nkat/50 ml, 50° C., pH 6
Experimental: as §1

[6] = Decolorization of dyes; set-up: key to Decolorization of Indigocarmine, Time 30 min / Decolorization of Indigocarmine, Time 60 min: −: no visually detectable change; +: visually detectable fading of the colour; ++: considerable fading of the colour; +++: complete/almost complete decolorization; conditions: for Decolorization of Indigocarmine, Time 30 min / Decolorization of Indigocarmine, Time 60 min: dye 5 mg/50 ml, enzyme 100 nkat/50 ml, 50° C., pH 6
Experimental: as §1

[7] = 40° C., enzyme 20 nkat/g + mediator 2 mg/g (Mediator only: 0 nkat/g)
[8] = 40° C., enzyme 200 nkat/g + mediator 10 mg/g (Mediator only: 0 nkat/g)
[9] = 40° C., enzyme 200 nkat/g, mediator 0 mg/g
[10] = 60° C., enzyme 200 nkat/g + mediator 10 mg/g (Mediator only: 0 nkat/g)
[11] = 60° C., enzyme 200 nkat/g, mediator 0 mg/g
[12] = in the presence of the mediator

B1: CtLcc1: Chaetomium thermophilum ALKO 4265 laccase, SEQ ID NO: 47, produced in Trichoderma reesei (protein)
chain: MKFLTYATALLGALTAVVGAIPTRSGTKKKYIRDGPGPCHTPSNRACWAPGFDINTDYEVNTPNTGVTRNYTLTLTEEDNWTGPDGVVKEKIMLVNGKTLGPTIEANWGDWIEVKVINNLLTNGTSIHWHGIHQKGSNLHDGANGVTECPIPPNGGQRTYRFRAQQYGTSWYHSHFSAQYGNGIVGPIVIHGPASLPYDIDLGPFPLTDYYYKSADELVRHTQNNGPPFSDNVLFNGTGVHPQTGHGQYAKVTLTPGKRHRLRIINMSTENHFQVSLVGHQFTVIAADMVPVHSYTTDSLFLAVGQRYDVTIDASQTPGNYWFNVTFGGGFACGGSFNPNPAAIFHYEGAPDALPTDPGVPPRDHNCLDTLDLVPVVPRNVQVNQFVKKPENTLPVELSLGGTPLFVWKVNGSAIDVDWGNPVLQYVMDRNTSYRQADNIVEVNGVNQWTYWLIENDPNGAFSLPHPMHLHGHDFLIVGRSPDVPPGSNQRYNFDPATDIYRLRGQNPTRRDVAMLPAGGWLLLAFLTDNPGAWLFHCHIAWHVSGGLSVDFLERPNDLRNSILQHDKDEFNRVCNEWRTYWPNSPHPKIDSGLKHRWVEESEWLVR
modifications: Chaetomium thermophilum ALKO4265; (1)..(607) Deduced amino acid sequence of Chaetomium thermophilum ALKO4265 CtLcc1
Specific activity on guaiacol [1]: 85 nkat/mg | decolorization of denim (increase of lightness) compared to Denilite II Base ([2]; 40-50 ° C. and pH 6): more efficient | After laccase treatment L* ([2]; 30° C.): 31.78 | After laccase treatment b* ([2]; 30° C.): −19.15 | Increase of L* ([2]; 30° C.): 2.44 | After laccase treatment L* ([2]; 40° C.): 34.43 | After laccase treatment b* ([2]; 40° C.): −18.77 | Increase of L* ([2]; 40° C.): 5.72 | After laccase treatment L* ([2]; 50° C., alkaline inactivation): 36.78 | After laccase treatment b* ([2]; 50° C., alkaline inactivation): −18.96 | Increase of L* ([2]; 50° C., alkaline inactivation): 8.26 | After laccase treatment L* ([2]; 60° C.): 37.40 | After laccase treatment b* ([2]; 60° C.): −18.29 | Increase of L* ([2]; 60° C.): 8.52 | After laccase treatment L* ([2]; 70° C.): 34.16 | After laccase treatment b* ([2]; 70° C.): −17.91 | Increase of L* ([2]; 70° C.): 5.23 | Tea L* [3, 7]: 76.34 | Tea a* [3, 7]: 5.10 | Tea b* [3, 7]: 23.89 | Tea L* [3, 8]: 77.70 | Tea a* [3, 8]: 4.26 | Tea b* [3, 8]: 24.50 | Tea L* [3, 9]: 76.22 | Tea a* [3, 9]: 5.37 | Tea b* [3, 9]: 22.68 | Tea L* [3, 10]: 79.76 | Tea a* [3, 10]: 3.52 | Tea b* [3, 10]: 22.16 | Tea L* [3, 11]: 77.10 | Tea a* [3, 11]: 4.84 | Tea b* [3, 11]: 21.10 | removal of tea soiling with the mediator ([3]; CtLcc1 at 60° C., TaLcc2 at 50° C.): effective | Decolorization of Cibacron Brilliant Red 3B-P, Time 30 min ([4]; mediator 0 mg/50 ml): − | Decolorization of Cibacron Brilliant Red 3B-P, Time 60 min ([4]; mediator 0 mg/50 ml): − | Decolorization of Cibacron Brilliant Red 3B-P, Time 30 min ([4]; mediator 5 mg/50 ml): + | Decolorization of Cibacron Brilliant Red 3B-P, Time 60 min ([4]; mediator 5 mg/50 ml): + | decolorization of Cibacron Brilliant Red 3B-P [4, 12]: partly decolorized | Decolorization of Remazol Brilliant blue, Time 30 min ([5]; mediator 0 mg/50 ml): − | Decolorization of Remazol Brilliant blue, Time 60 min ([5]; mediator 0 mg/50 ml): − | Decolorization of Remazol Brilliant blue, Time 30 min ([5]; mediator 5 mg/50 ml): ++ | Decolorization of Remazol Brilliant blue, Time 60 min ([5]; mediator 5 mg/50 ml): +++ | decolorization of Remazol Brilliant Blue [5, 12]: very effectively; also recorded: to great extend or completely | Decolorization of Indigocarmine, Time 30 min ([6]; mediator 0 mg/50 ml): − | Decolorization of Indigocarmine, Time 60 min ([6]; mediator 0 mg/50 ml): − | Decolorization of Indigocarmine, Time 30 min ([6]; mediator 5 mg/50 ml): +++ | Decolorization of Indigocarmine, Time 60 min ([6]; mediator 5 mg/50 ml): +++ | decolorization of Indigocarmine [6, 12]: very effectively; also recorded: to great extend or completely
